Common to all, as to experiment: ELISA
In general terms: In an ELISA, binding on a coated surface is turned into a signal by an enzyme label.

The target in experiment [1] is T1, human Ang-2 H375Q (human, UniProt O15123 19-496).
T1 sequence: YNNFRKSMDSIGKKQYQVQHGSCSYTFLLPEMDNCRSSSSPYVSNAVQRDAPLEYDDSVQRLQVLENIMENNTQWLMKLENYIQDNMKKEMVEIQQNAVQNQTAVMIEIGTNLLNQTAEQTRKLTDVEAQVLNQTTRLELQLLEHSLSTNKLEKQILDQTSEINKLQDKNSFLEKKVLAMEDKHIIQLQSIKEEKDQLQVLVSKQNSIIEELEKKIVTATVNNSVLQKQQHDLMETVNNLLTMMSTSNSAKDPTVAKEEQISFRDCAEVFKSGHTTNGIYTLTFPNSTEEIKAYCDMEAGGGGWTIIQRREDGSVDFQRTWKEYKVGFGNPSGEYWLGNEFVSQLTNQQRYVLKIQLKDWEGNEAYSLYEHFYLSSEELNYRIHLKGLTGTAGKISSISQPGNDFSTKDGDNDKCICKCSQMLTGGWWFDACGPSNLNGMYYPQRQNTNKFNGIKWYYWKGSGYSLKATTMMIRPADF

Experiment [2] concerns the target T2, Mouse/Human Ang-2 StuI chimeric molecule (mouse; human, UniProt O35608 19-496).
T2 construct: also called M/H Stul 310-496
T2 chain: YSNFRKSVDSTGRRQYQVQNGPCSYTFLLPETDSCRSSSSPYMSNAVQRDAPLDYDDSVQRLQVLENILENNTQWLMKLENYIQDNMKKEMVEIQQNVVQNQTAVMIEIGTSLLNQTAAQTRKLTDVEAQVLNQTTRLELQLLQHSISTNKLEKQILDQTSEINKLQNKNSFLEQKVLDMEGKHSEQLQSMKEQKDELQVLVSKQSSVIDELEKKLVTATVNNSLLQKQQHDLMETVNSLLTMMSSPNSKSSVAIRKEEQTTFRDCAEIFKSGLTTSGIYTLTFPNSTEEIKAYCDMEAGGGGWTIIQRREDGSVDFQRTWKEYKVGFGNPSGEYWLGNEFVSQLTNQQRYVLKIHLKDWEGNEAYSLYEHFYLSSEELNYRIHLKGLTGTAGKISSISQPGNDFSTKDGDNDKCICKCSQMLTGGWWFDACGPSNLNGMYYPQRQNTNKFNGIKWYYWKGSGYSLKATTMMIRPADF

Experiment [3] addresses T3, Mouse/Human chimeric Ang-2 with the human StuI-TfiI fragment (mouse/human chimera, UniProt O35608 19-496).
T3 construct: also called Stu-Tfil 310-400
T3 chain: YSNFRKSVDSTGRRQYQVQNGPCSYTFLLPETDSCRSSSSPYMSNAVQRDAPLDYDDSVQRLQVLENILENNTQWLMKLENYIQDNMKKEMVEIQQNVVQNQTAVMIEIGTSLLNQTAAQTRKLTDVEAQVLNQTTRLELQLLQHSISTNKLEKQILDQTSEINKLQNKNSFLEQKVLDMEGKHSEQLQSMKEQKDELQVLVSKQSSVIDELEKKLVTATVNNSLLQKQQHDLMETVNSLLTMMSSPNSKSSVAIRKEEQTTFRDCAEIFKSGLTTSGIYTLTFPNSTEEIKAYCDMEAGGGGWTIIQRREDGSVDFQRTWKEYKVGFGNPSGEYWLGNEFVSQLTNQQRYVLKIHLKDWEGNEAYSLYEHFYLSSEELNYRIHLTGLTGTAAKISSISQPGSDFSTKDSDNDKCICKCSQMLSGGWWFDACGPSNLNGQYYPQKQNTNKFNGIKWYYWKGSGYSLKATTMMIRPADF

Experiment [4] has as its target T4, human Ang-2443 (human, UniProt O15123 19-496).
T4 construct: Splice variant missing amino acids 96-148; supernatant of transfected 293F cells
T4 sequence: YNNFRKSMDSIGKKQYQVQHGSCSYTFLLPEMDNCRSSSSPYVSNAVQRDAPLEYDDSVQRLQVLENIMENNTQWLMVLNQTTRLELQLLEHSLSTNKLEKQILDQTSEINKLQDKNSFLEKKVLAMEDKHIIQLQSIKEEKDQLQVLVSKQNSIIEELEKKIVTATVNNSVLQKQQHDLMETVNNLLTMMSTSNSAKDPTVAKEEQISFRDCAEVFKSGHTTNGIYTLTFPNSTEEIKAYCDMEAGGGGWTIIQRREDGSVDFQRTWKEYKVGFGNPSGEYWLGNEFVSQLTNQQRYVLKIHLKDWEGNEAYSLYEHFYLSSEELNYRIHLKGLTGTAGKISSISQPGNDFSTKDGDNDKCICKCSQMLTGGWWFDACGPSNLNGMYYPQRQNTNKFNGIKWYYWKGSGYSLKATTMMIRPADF

Experiment [5] concerns the target T5, Human Ang-1/2 BsmI chimeric molecule (human).
T5 chain: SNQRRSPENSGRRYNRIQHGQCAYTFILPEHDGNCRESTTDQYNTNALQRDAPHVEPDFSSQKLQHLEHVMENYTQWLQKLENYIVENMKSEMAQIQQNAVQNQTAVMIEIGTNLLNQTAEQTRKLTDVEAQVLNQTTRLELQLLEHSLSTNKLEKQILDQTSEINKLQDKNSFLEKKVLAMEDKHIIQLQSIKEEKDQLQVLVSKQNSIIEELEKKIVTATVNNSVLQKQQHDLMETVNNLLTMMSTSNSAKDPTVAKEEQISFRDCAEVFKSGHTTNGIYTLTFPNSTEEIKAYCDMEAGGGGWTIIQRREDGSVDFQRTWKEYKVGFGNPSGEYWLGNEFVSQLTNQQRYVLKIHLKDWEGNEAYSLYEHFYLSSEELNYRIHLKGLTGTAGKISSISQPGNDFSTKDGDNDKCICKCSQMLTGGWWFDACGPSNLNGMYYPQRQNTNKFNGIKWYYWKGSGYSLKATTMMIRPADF

B1: mAb 5.108.1 (antibody, V domains shown)
VH: QVQLVESGGGVVQPGRSLRLSCAASGFTFSSYGMHWVRQAPGKGLEWVAVIWYDGSNKYYADSVKGRFTISRDNSKNTLYLQMNSLRAEDTAMYYCARELALWGQGTLVTVSS
VL: EIVMTQSPATLSVSPGERATLSCRASQSVSSYLAWYQQKPGQAPRLLIYGAFTRATGIPARFRGSGSGPEFTLTISSLQSEDFAVYYCQQYSHWWTFGQGTKVEIKR
notes: Human hybridoma IgG (XenoMouse); also called x5.108
Consider B1, for which the “% of binding to human Ang-2” value in experiment [1] came to 100%; in experiment [2] it was 100%; in experiment [3], 36%; in experiment [4] it was 100%; in experiment [5], 100%.

B2: mAb 5.39.1 (antibody, V domains shown)
VH: QVQLVQSGAEVTKPGASVKVSCKASGYTFTAYHMYWVRQAPGQGLEWMGWINPNSGGTNYAQKFQGRVTMTRDTSISTAYMELSRLRSDDSPVYYCARDQGIAAAGPFDYWGQGTLVTVSS
VL: EIVMTQSPATLSVSPGDRATLSCRASQSVSSNFAWYQQKPGQAPRLLIYGSSTRATGIPARFSGSGSGTEFTLTISSLQSEDFAVYYCQQYHYWWTFGQGTKVEFKR
notes: Human hybridoma IgG (XenoMouse); also called x5.39
For B2, the “% of binding to human Ang-2” value in experiment [1] stood at 100%; in experiment [2] it was 100%; in experiment [3], 25%; in experiment [4] it was 100%; in experiment [5] it was 100%.

B3: mAb 5.40.2 (antibody, V domains shown)
VH: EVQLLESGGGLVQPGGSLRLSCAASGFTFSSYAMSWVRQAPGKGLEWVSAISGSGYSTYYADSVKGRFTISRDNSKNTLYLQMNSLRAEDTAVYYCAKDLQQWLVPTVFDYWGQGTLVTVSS
VL: EIVMTQSPATLSVSPGERATLSCRASQSVSSNLVWYQQKPGQAPRLLIYDSSTRATGIPVRFSGSGSGTEFTLTISSLQSEDFAVYYCQQYNHWWTFGQGTKVEIKR
notes: Human hybridoma IgG (XenoMouse); also called x5.40
Consider B3, for which the “% of binding to human Ang-2” value is 100% in experiment [1]; 100% in experiment [2]; 65% in experiment [3]; 100% in experiment [4]; 100% in experiment [5].

B4: mAb 5.56.1 (antibody, V domains shown)
VH: QVQLVESGGGVVQPGRSLRLSCAASGFTFSSYGMHWVRQAPGKGLEWVAVIWYDGSNKYYADSVKGRFTISRDNSKNTLYLQMNSLRAEDTAVYYCAREDNWNFYFDYWGQGTLVTVSS
VL: DIQMTQSPSSLSASVGDRVTITCRASQGISYYLAWYQQKPGKVPKLLIYAASTLQSGVPSRFSGSGSGTDFTLTISSLQPEDVATYYCQKYNSAPFTFGPGTKVDIKR
notes: Human hybridoma IgG (XenoMouse); also called x5.56
As for B4, the “% of binding to human Ang-2” value in experiment [1], in experiment [2], in experiment [3], in experiment [4] and in experiment [5] was 100% in each case.

B5: mAb 5.52.1 (antibody, V domains shown)
VH: QVQLVESGGGVVQPGRSLRLSCAASGFTFSSYGMHWVRQAPGKGLEWVAVRWYDESNKYYADSVKGRFTISRDNSKNTLYLQMNSLRAEDTAVYYCARDPFETGTTFDYWGQGTLVTVSS
VL: DIQMTQSPSSVSASVGDRVTITCRASQGISSWLAWYQQKPGKAPKLLIYAVSSLESGVPSRFSGSGSGTDFTLTISSLQPEDFATYYCQQALTFGGGTKVEIKR
notes: Human hybridoma IgG (XenoMouse); the line 5.52 has entries of its own (347, 349; light chain L2) that differ from the clone 5.52.1 (L5); also called x5.52
For B5, the “% of binding to human Ang-2” value in experiment [1], in experiment [2], in experiment [3], in experiment [4] and in experiment [5] was 100% throughout.

B6: mAb 5.28.1 (antibody, V domains shown)
VH: EVQLVESGGIVVQPGGSLRLSCAASGFTFDDYTMHWVRQTPGKGLEWVSLISWDGGSTYYADSVKGRFTISRDNSKNSLYLQMNSLRTEDTALYYCAKDIDIAVAGTGFDHWGQGTLVTVSS
VL: EIVMTQSPATLSVSPGERATLSCRASQSVTSNLAWYQQKPGQAPRLLIYGALIRATGIPARFSGSGSGTEFTLTISSLQSEDFAVYYCQQYNNWPFTFGPGTKVDIKR
notes: Human hybridoma IgG (XenoMouse); also called x5.28
As to B6, the “% of binding to human Ang-2” value in experiment [1], in experiment [2], in experiment [3], in experiment [4] and in experiment [5] was 100% throughout.

B7: mAb 5.35.1 (antibody, V domains shown)
VH: EVQLVESGGGVVRPGGSLRLSCTTSGFTFDDYGMSWVRQAPGKGLEWVSGINWNGGSTVYADSVKGRFTISRDSAKNSLYLQMNSLRAEDTALYHCARNKQWLWYFDLWGRGTLVTVSS
VL: EIVMTQSPATLSVSPGERATLSCRASQSVSSNLAWYQQKPGQAPRLLIYGASTRATGIPARFSGSGSGTEFTLTISSLQSEDFAVYYCEQYNNWPLTFGGGTKVEIKR
notes: Human hybridoma IgG (XenoMouse); also called x5.35
Turning to B7, the “% of binding to human Ang-2” value in experiment [1], in experiment [2], in experiment [3], in experiment [4] and in experiment [5] was 100% each time.

Values taken from US20080267971A1 (published 2008).
